{"source": "patent US20080293081A1", "about": "“Fluorescence Polarization Assays for Acetyltransferase/Deacetylase Activity” (Sirtris Pharmaceuticals, Inc., priority 2005, published 2008)", "molecules": {"B1": {"name": "SIRT1 (protein)", "chain": "MADEAALALQPGGSPSAAGADREAASSPAGEPLRKRPRRDGPGLERSPGEPGGAAPEREVPAAARGCPGAAAAALWREAEAEAAAAGGEQEAQATAAAGEGDNGPGLQGPSREPPLADNLYDEDDDDEGEEEEEAAAAAIGYRDNLLFGDEIITNGFHSCESDEEDRASHASSSDWTPRPRIGPYTFVQQHLMIGTDPRTILKDLLPETIPPPELDDMTLWQIVINILSEPPKRKKRKDINTIEDAVKLLQECKKIIVLTGAGVSVSCGIPDFRSRDGIYARLAVDFPDLPDPQAMFDIEYFRKDPRPFFKFAKEIYPGQFQPSLCHKFIALSDKEGKLLRNYTQNIDTLEQVAGIQRIIQCHGSFATASCLICKYKVDCEAVRGDIFNQVVPRCPRCPADEPLAIMKPEIVFFGENLPEQFHRAMKYDKDEVDLLIVIGSSLKVRPVALIPSSIPHEVPQILINREPLPHLHFDVELLGDCDVIINELCHRLGGEYAKLCCNPVKLSEITEKPPRTQKELAYLSELPPTPLHVSEDSSSPERTSPPDSSVIVTLLDQAAKSNDDLDVSESKGCMEEKPQEVQTSRNVESIAEQMENPDLKNVGSSTGEKNERTSVAGTVRKCWPNRVAKEQISRRLDGNQYLFLPPNRYIFHGAEVYSDSEDDVLSSSSCGSNSDSGTCQSPSLEEPMEDESEIEEFYNGLEDEPDVPERAGGAGFGTDGDDQEAINEAISVKQEVTDMNYPSNKS"}, "B2": {"name": "Human SIRT2 enzyme (protein)", "chain": "MAEPDPSHPLETQAGKVQEAQDSDSDSEGGAAGGEADMDFLRNLFSQTLSLGSQKERLLDELTLEGVARYMQSERCRRVICLVGAGISTSAGIPDFRSPSTGLYDNLEKYHLPYPEAIFEISYFKKHPEPFFALAKELYPGQFKPTICHYFMRLLKDKGLLLRCYTQNIDTLERIAGLEQEDLVEAHGTFYTSHCVSASCRHEYPLSWMKEKIFSEVTPKCEDCQSLVKPDIVFFGESLPARFFSCMQSDFLKVDLLLVMGTSLQVQPFASLISKAPLSTPRLLINKEKAGQSDPFLGMIMGLGGGMDFDSKKAYRDVAWLGECDQGCLALAELLGWKKELEDLVRREHASIDAQSGAGVPNPSTSASPKKSPPPAKDEARTTEREKPQ"}}, "key": {"Sirt2": {"target": "T1, Sirt2 (Homo sapiens, UniProt Q8IXJ6)", "T1 sequence (Q8IXJ6 1-389)": "B2 chain", "settings": "Km of NAD with the named peptide substrate; Sirt2, FRET, Marcotte et al.; cited from earlier work"}, "SIRT1": {"target": "T2, SIRT1 (Homo sapiens, UniProt Q96EB6)", "T2 sequence (Q96EB6 1-747)": "B1 chain", "settings": "Km of NAD with the named peptide substrate; Sirt1, FRET, Marcotte et al.; cited from earlier work"}, "[1]": {"target": "T3, Ac-EE-K(biotin)-GQSTSSHS-K(Ac)-Nle-STEG-K(5-TMR)-EE-NH2", "T3 chain": "GQSTSSHSKXSTEGKEE"}, "[2]": {"target": "T4, Biotin-Nle-PSD-K(Ac)-TIGG-K(MR121)-NH2", "T4 chain": "XPSDKTIGGK"}}, "note": "No end group written: not given here."}
{"molecule": "p53 20 mer (aa 372-387) *FL: p53 20 mer (aa 372-387) peptide substrate with fluorescent label, FRET assay of Marcotte et al. (KKGQSTSRHKKLMFKT; also: fluorescent label, position not given here; UniProt P04637 372-387, looked up, fragment)", "values": [{"measurement": "Km", "setting": "Sirt2", "value": 42, "unit": "µM"}, {"measurement": "Km", "setting": "SIRT1", "value": 90, "unit": "µM"}]}
{"molecule": "B1", "values": [{"measurement": "Peptide Km (uM), fluorescent polarization deacetylase assay", "setting": "[1]", "value": 7.8, "unit": "µM"}]}
{"molecule": "B2", "values": [{"measurement": "Peptide Km (uM), fluorescent polarization deacetylase assay", "setting": "[2]", "value": 50, "unit": "µM"}]}
